Assay results from the nanobody polyreactivity screen of Harvey et al. (2022).

Experiment: yeast display, Sf9 membrane polyspecificity reagent, FACS + sequencing; frameworks hold sequencing errors
Method in brief: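 Galactose induction of a Saccharomyces cerevisiae BJ5465 synthetic nanobody display library ran 36–48 hours. The cells were then stained for 1 hour at 4 °C with 10% biotinylated, detergent-solubilized Sf9 membrane reagent, pulled down on streptavidin microbeads and FACS-sorted into low and high (top ~1%) gates on expression and reagent-binding fluorescence. Labels for polyreactivity follow the gate of origin.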

**Q.** For “QVQLVESGGGLVQAGGSLRLSCAASGRIFGVYAMGWYRQAPGKERELFADISWSGSGTYADSVKGRFTISRDNAKNTVYLQMNSLKPEDTAVYYCNVDPAQIHAGYVGYDYWGQGTQVTVSS”, which “polyreactivity (PSR sort gate)” value is on record?
**A.** The value was “low polyreactivity”.

**Q.** With “QVQLVESGGGLVQAGGSLRLSCAASGRIFGVYAMGWYRQAPGKERELVAAISFSGGRTYYADSVKGRFTISRDNAKNTVYLQMNSLKAEDTAVYDCAALGPYDWLWAGDYWGQGTQVTVSS” as the sequence, how does the “polyreactivity (PSR sort gate)” value read?
**A.** The value was “low polyreactivity”.

**Q.** Which “polyreactivity (PSR sort gate)” value does the source give for “QVQLVESGGGLVQAGGSLRLSCAASGRIFGVYAMGWYRQAPGKERELVAAISSTGDRTYYADSVKGRFTISRDNAKNTVYLQMNSLKPEDTAVYYCAARPAYRSSYYWGQGTQVTVSS” here?
**A.** Its value is “high polyreactivity”.

**Q.** For “QVQLVESGGGLVQAGGSLRLSCAASGRIFGVYAMGWYRQAPGKERQLVAAITARGGSTYYADSVKGRFTISRDNAKNTVYLQMNSLKPEDTAVYYCATRLYKRTRTITYGYWGQGTQVTVSS”, which “polyreactivity (PSR sort gate)” value is on record?
**A.** The value was “high polyreactivity”.

**Q.** Which “polyreactivity (PSR sort gate)” value does the source give for “QVQLVESGGGLVQAGGSLRLSCAASGRIFGVYGMGWYRQAPGKERELVAAITISGRTNYADSVKGRFTISRDNAKNTVYLQMNSLKPEDTAVYYCAAEKRKLFQGVARYRYEYWGQGTQVTVSS” here?
**A.** The value was “low polyreactivity”.

**Q.** With “QVQLVESGGGLVQAGGSLRLSCAASGRIFGVYGMGWYRQAPGKERELVAAITISGRTNYADSVKGRFTISRDNAKNTVYLQMNSLKREDTAVYYCAAGGQARHDYWGQGTQVTVSS” as the sequence, how does the “polyreactivity (PSR sort gate)” value read?
**A.** The value was “low polyreactivity”.

**Q.** With “QVQLVESGGGLVQAGGSLRLSCAASGRIFGYNAMGWYRQAPGKEREFVAAITYRGGSTYYADSVKGRFTISRDNAKTTVYLEMNSLKPEDTAVYYCASRVTQYPKYWGDYWGQGTQVTVSS” as the sequence, how does the “polyreactivity (PSR sort gate)” value read?
**A.** The value was “high polyreactivity”.

**Q.** With “QVQLVESGGGLVQAGGSLRLSCAASGRIFGYNAMGWYRQAPGKERELVAAIRYSGGRTYYADSVKGRFTISRDNAKNTVYLQMNSLKREDTAVYYCAATAFDKLKVWYYYWGQGTQVTVSS” as the sequence, how does the “polyreactivity (PSR sort gate)” value read?
**A.** The value was “high polyreactivity”.

**Q.** Which “polyreactivity (PSR sort gate)” value does the source give for “QVQLVESGGGLVQAGGSLRLSCAASGRIFGYNAMGWYRQAPGKERELVATISGRGGSTYYADSVKGRFTISRDNAKNTVYLQMNSLKPEDTAVYYCNAKRKYGRFPKKYYYWGQGTQVTVSS” here?
**A.** Its value is “high polyreactivity”.

**Q.** Which “polyreactivity (PSR sort gate)” value does the source give for “QVQLVESGGGLVQAGGSLRLSCAASGRIFGYNAMGWYRQAPGNERELVAAITNGGSTNYADSVKGRFTISRDNAKNTVYLQINSLKPEDTAVYYCAVKWYPPGHDYWGQGTQVTVSS” here?
**A.** Its value is “low polyreactivity”.

**Q.** For “QVQLVESGGGLVQAGGSLRLSCAASGRIFGYNDMGWYRQAPGKERELVAAINRTGGSTYYADSVKGRFTISRDNGKNTVYLQMNSLKPEDTAVYYCNAVARTKWVQTHTDFITDYDYWGQGTQVTVSS”, which “polyreactivity (PSR sort gate)” value is on record?
**A.** Its value is “low polyreactivity”.

**Q.** Which “polyreactivity (PSR sort gate)” value does the source give for “QVQLVESGGGLVQAGGSLRLSCAASGRIFGYNSMGWYRQAPGKERELVAAIRRSGGRTFYADSVKGRFTLSRDNAKNTVYLQMNRLKPEDTAVYYCAVRGPGTSTYWYHEYEYWGQGTQVTVSS” here?
**A.** Its value is “high polyreactivity”.

**Q.** For “QVQLVESGGGLVQAGGSLRLSCAASGRIFGYTMGWYRPAPGKERELVAAISRSAGSTYYADSVKGRFTISRDNAKNTVYLQMNSLKPEDTAVYYCAATGRYYREYDYWGQGTQVTVSS”, which “polyreactivity (PSR sort gate)” value is on record?
**A.** The value was “high polyreactivity”.

**Q.** Which “polyreactivity (PSR sort gate)” value does the source give for “QVQLVESGGGLVQAGGSLRLSCAASGRIFGYYAMGWSRQAPGKERELVASIRRGTRTNYADSVKGRFTISRDNAKNTVYLQMNSLKPEDTAVYYCAATRFQFTTTPWYDYWGQGTHVTVSS” here?
**A.** The value was “high polyreactivity”.

**Q.** For “QVQLVESGGGLVQAGGSLRLSCAASGRIFGYYAMGWYRPAPGKEMELVAAIRYSSGRTYYADSVKGRFTISRDNAKNTVYLQMNSLKPEDTAVYYCAAKDQATYQLNYWGQGTQVTVSS”, which “polyreactivity (PSR sort gate)” value is on record?
**A.** Its value is “high polyreactivity”.

**Q.** For “QVQLVESGGGLVQAGGSLRLSCAASGRIFGYYAMGWYRQAPGKERELVAAIDGSGGTTYYADSVKGRITISRDNAKNSVYLQMNSLKPEATAVYYCAARGYNSKYGYWGQGTQVTVSS”, which “polyreactivity (PSR sort gate)” value is on record?
**A.** The value was “high polyreactivity”.

**Q.** Which “polyreactivity (PSR sort gate)” value does the source give for “QVQLVESGGGLVQAGGSLRLSCAASGRIFGYYAMGWYRQAPGKERELVAAISNGGSTHYADSVKGRFTISRDNANNTVYLQMTSLKPEDTAVYYCAAKASRVDWGYGYWGQGTQVTVSS” here?
**A.** The value was “high polyreactivity”.

**Q.** Which “polyreactivity (PSR sort gate)” value does the source give for “QVQLVESGGGLVQAGGSLRLSCAASGRIFGYYAMGWYRQAPGKERELVAAISYIGGRTYYADSVKGRFTISRDNAKNTGYLQMNSLKPEDTAVYYCDADRDGADVDYWGQGTQVTVSS” here?
**A.** Its value is “high polyreactivity”.

**Q.** Which “polyreactivity (PSR sort gate)” value does the source give for “QVQLVESGGGLVQAGGSLRLSCAASGRIFGYYAMGWYRQAPGKERELVAAITWSGGSTYYADSVKGRFTISRDNAKNTVYLQMNSLKPEDNAVYYCAAEKRYRKAFDYWGQGTQVTVSS” here?
**A.** Its value is “high polyreactivity”.

**Q.** Which “polyreactivity (PSR sort gate)” value does the source give for “QVQLVESGGGLVQAGGSLRLSCAASGRIFGYYAMGWYRQAPGKERELVAGIDWSGGNTYYADSVKGRFTISRDNAKNTVYLQMNSLKPEDTAVYYCNTVGGRDTAWYDYWGQGTQVTVSS” here?
**A.** Its value is “low polyreactivity”.

**Q.** For “QVQLVESGGGLVQAGGSLRLSCAASGRIFGYYAMGWYRQAPGKERELVARIRRRGGSTYYADSVKGRFTISRDNAKNTVYLQMNSLKPEDTAVYYCAAVYYPLVGKRYYYWGQGTQVTVSS”, which “polyreactivity (PSR sort gate)” value is on record?
**A.** The value was “high polyreactivity”.

**Q.** Which “polyreactivity (PSR sort gate)” value does the source give for “QVQLVESGGGLVQAGGSLRLSCAASGRIFGYYAMGWYRQAPGKERELVASITNGASTNYADSVKGRFTISRDNAKNTVYLQMNSLKPEDTAVYYWNARRGSRRFGYWGQGTQVTVSS” here?
**A.** Its value is “high polyreactivity”.

**Q.** With “QVQLVESGGGLVQAGGSLRLSCAASGRIFGYYAMGWYRQAPGKQRELVAAISWSGGRTYYADSVKGRFTISRDNAKNTVYLQMNSLKPEDTAVYYCNKVYRVPITEEYDYWGQGTQVTVSS” as the sequence, how does the “polyreactivity (PSR sort gate)” value read?
**A.** The value was “high polyreactivity”.

**Q.** For “QVQLVESGGGLVQAGGSLRLSCAASGRIFGYYAMGWYRQAPGTERELVAAITYNGASTYYADSVKGRFTISRDNAKNTVYLQMNSLKPEDTAVYYCAVLTRYGGYGYWGQGTQVTVSS”, which “polyreactivity (PSR sort gate)” value is on record?
**A.** The value was “high polyreactivity”.

**Q.** Which “polyreactivity (PSR sort gate)” value does the source give for “QVQLVESGGGLVQAGGSLRLSCAASGRIFGYYGMGWYRPAPGKERELVAAITYRGGSTYYADSVKGRFTISRDNAKNTVYLQMNSLKPEDTAVYYCAADGYSHYPYLYDYWGQGTQVTVSS” here?
**A.** The value was “low polyreactivity”.

**Q.** Which “polyreactivity (PSR sort gate)” value does the source give for “QVQLVESGGGLVQAGGSLRLSCAASGRIFGYYPKGCYRPAPGKERELVAAISSGGNTNYADSVKGRFTISRDNAKKTVYLQMNSLKPEDTAVYYCSAYHFSFGWIRVDYWGQGTQVTVSS” here?
**A.** The value was “high polyreactivity”.

**Q.** For “QVQLVESGGGLVQAGGSLRLSCAASGRIFGYYTMGWYRQAPGKERELVATIDWSGDSTYYADSVKARFTISRDNAKNTVYLQMNSLKPEDTAVYYCAARDHAFRYYRNPYKGKYDYWGQGTQVPVSS”, which “polyreactivity (PSR sort gate)” value is on record?
**A.** The value was “low polyreactivity”.

**Q.** For “QVQLVESGGGLVQAGGSLRLSCAASGRIFHFNAIGWYRQAPGKERELFARIDTRGDSTYYADSVKGRFTISRDNAKNTVYLQMNSLKPEDTAVYYCAARGSRDGPYSGYGYWGQGTQVTVSS”, which “polyreactivity (PSR sort gate)” value is on record?
**A.** Its value is “low polyreactivity”.

**Q.** Which “polyreactivity (PSR sort gate)” value does the source give for “QVQLVESGGGLVQAGGSLRLSCAASGRIFHGNAMGWYRQAPGKERELVAAISRSGSRTYYADSVKGRFTISRDNAKNTVYLQMNSLKPEDTAVYYCAAVTFSYQDYYWGQVTQVTVSS” here?
**A.** The value was “high polyreactivity”.

**Q.** With “QVQLVESGGGLVQAGGSLRLSCAASGRIFHGYAMGWYRQAPGKESELVAAISSGGRTNYADSVKGRFTISRDNAKYTVYLQMNSLKPEDTAVYYCAAPVLTSDYTLDSYYWGQGTQVTVSS” as the sequence, how does the “polyreactivity (PSR sort gate)” value read?
**A.** The value was “high polyreactivity”.

**Q.** For “QVQLVESGGGLVQAGGSLRLSCAASGRIFHRYVMGWYRQAPGKERELVAAISSGTGSTYYADSVKGRFTISRDTAKNTVYLLMNSLIPEDTAVYYCNAAPGYTSVTYDYWGQGTQVTVSS”, which “polyreactivity (PSR sort gate)” value is on record?
**A.** The value was “high polyreactivity”.

**Q.** With “QVQLVESGGGLVQAGGSLRLSCAASGRIFHVYAMGWYRQAPGKERELVAAISSGDRTYYADSVNGRFIISRDNAKNTVYLQMNSLKPEDTAVYYCWLYPAAVSNYWGQGTQVTVSS” as the sequence, how does the “polyreactivity (PSR sort gate)” value read?
**A.** Its value is “low polyreactivity”.
